Earlier results as cited in US7759315B2, “Treatment of inflammatory conditions of the intestine” (CSL Behring AG, priority 2005, dated 2010).
Non-standard residues stand in square brackets, D forms with d. No end group written: not given here. Nal = naphthylalanine (source code Z); Aib = CC(C)(N)C(=O)O

Key:
[1] = percent helicity; for He (%): micelles; for He (%) free: free peptide
LCAT = target: T1, LCAT (Homo sapiens, UniProt P04180)
T1 sequence (P04180 25-440): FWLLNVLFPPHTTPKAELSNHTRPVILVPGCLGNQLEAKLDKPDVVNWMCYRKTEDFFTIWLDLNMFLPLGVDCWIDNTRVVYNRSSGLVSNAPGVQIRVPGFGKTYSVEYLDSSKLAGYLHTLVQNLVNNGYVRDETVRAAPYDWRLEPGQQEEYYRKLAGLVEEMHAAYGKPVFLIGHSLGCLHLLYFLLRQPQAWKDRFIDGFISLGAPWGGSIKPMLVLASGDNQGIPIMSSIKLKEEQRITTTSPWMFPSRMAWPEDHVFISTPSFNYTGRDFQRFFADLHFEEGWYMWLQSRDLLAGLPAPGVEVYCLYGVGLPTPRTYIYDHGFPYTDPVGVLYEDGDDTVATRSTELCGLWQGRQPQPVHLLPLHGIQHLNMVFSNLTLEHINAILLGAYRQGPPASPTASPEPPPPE

Substance	ACTIVITY (%) LCAT (LCAT) [%]	Crohn's disease activity index (CDAI) (Crohn's disease patients)	histopathological and endoscopic inflammation (Crohn's disease patients)	He (%) [1]	He (%) free [1]
Infliximab	–	significant reduction	attenuation	–	–
PVLDWFRELLNELLEALKQKLK [Peptide 35]	31	–	–	59%	49 (sp) %
PVLELFENLLERGLDALQKKLK [Peptide 154]	39	–	–	76%	–
PVLELFENLLERLGDALQKKLK [Peptide 148]	75	–	–	76%	–
PVLELFENLLERLLDALQKKLK [Peptide 146]	86	–	–	100%	–
PVLELFENLWERLLDALQKKLK [Peptide 149]	63	–	–	54%	–
PVLELFENWLERLLDALQKKLK [Peptide 162]	27	–	–	83%	–
PVLELFRELLEELKQKLK* (not fully specified (N-terminus, C-terminus); printed as PVLELFRELLEELKQKLK*) [Peptide 194]	88	–	–	93%	–
P~~~LFRELLNELLEALKQKLK (PLFRELLNELLEALKQKLK) [Peptide 55]	19	–	–	72%	–
klkqklaellenllerfldlvp (KLKQKLAELLENLLERFLDLVP; not fully specified; D-amino acids; D-Lys; D-Leu; D-Gln; D-Ala; D-Glu; D-Asn; D-Arg; D-Phe; D-Asp; D-Val; D-Pro) [Peptide 107]	0	–	–	sp	–
pllellkellqellealkqklk ([dP][dL][dL][dE][dL][dL][dK][dE][dL][dL][dQ][dE][dL][dL][dE][dA][dL][dK][dQ][dK][dL][dK]; not fully specified (C-terminus); printed as pllellkellqellealkqklk) [Peptide 87]	7	–	–	100%	–
pvldefreklneXlealkgklk ([dP][dV][dL][dD][dE][dF][dR][dE][dK][dL][dN][dE][Aib][dL][dE][dA][dL][dK][dQ][dK][dL][dK]) [Peptide 44]	25	–	–	86%	–

More lines, main results first:

ACTIVITY (%) LCAT (LCAT) [%]	Substance	Crohn's disease activity index (CDAI) (Crohn's disease patients)	histopathological and endoscopic inflammation (Crohn's disease patients)	He (%) [1]	He (%) free [1]
25	PVLDLWRELLNEXLEALKQKLK (PVLDLWRELLNE[Aib]LEALKQKLK; not fully specified (C-terminus)) [Peptide 41]	–	–	73%	–
32	PVLDZFRELLNELLEALKQKLK (PVLD[Nal]FRELLNELLEALKQKLK; not fully specified (C-terminus)) [Peptide 34]	–	–	67%	–
24	PVLELFENLLERLLDAWQKKLK [Peptide 164]	–	–	66%	–
28	PVLELFENLLERLLDWLQKKLK [Peptide 160]	–	–	73%	–
26	PVLELFENLLERLWDALQKKLK [Peptide 163]	–	–	53%	–
20	PVWDEFREKLNEXLEALKQKLK (PVWDEFREKLNE[Aib]LEALKQKLK; not fully specified (C-terminus)) [Peptide 52]	–	–	sp	–
7	P~LDLFRELLNELLEALKQKLK (PLDLFRELLNELLEALKQKLK) [Peptide 85]	–	–	61%	–
1	P~~~~~~~LLNELLEALKQKLK (PLLNELLEALKQKLK) [Peptide 104]	–	–	49%	–
111	pVLELFENLLERLLDALQKKLK ([dP]VLELFENLLERLLDALQKKLK; not fully specified (C-terminus); printed as pVLELFENLLERLLDALQKKLK) [Peptide 144]	–	–	88%	89%
5	pvldlfrellneXlealkgklk ([dP][dV][dL][dD][dL][dF][dR][dE][dL][dL][dN][dE][Aib][dL][dE][dA][dL][dK][dQ][dK][dL][dK]) [Peptide 96]	–	–	85%	–
2	pvldlfrellneXlealkqklk [Peptide 100]	–	–	92%	–
14	~VLDLFRELLNELLEALKQKLK [Peptide 67]	–	–	90%	–
